Laboratory results taken from paper PMC4486934.

Molecular target: alpha-thrombin (biotinylated, thrombin-BFPRck) (human, UniProt P00734;P00734 328-363;364-622)
Experiment: BLI; 2 mM Ca2+; TBB: 20 mM HEPES pH 7.4, 150 mM NaCl, 2 mM CaCl2; room temperature (cell binding); BLI in TBB

B1: 5-12mini (structured_RNA)
RNA: GGGAGCUCAGAAUAAACGCUCAAGUUACUGAGCUCAGCAUGAGGCCCGGAUCCGGC
modifications: 2'-fluoro pyrimidines
  Kd: ~5 nM
